Legend:
[1] = target: Hir complex (Hir1/Hir2/Hir3/Hpc2) (S. cerevisiae) (UniProt P32479); test: SPR
ctHir3 = ctHir3 (Chaetomium thermophilum, UniProt G0S723 1-2235); test: fluorescence polarization

Row | KD1 (heterogeneous ligand model, fast site of weak affinity) [1] [nM] | KD2 (heterogeneous ligand model, slow site of strong affinity) [1] [nM] | Molecule | Kd (ctHir3) [nM]
1 | 196 | 18 | yeastAsf1/humanH3.3/humanH4 (from UniProt P32447 1-279; P84243 1-136; P62805 1-103) (complex) | 
2 |  |  | AAAACAAAUAUGCAUAUUAUCGAGAGG (ssRNA) [ssRNA probe] | 292
3 |  |  | TAGGGAGTAATCCCCTTGGCGG (ssDNA) [ssDNA probe] | 531

Source: paper PMC11338637
